Here are results for one molecule from article doi:10.1101/2023.08.28.555152.

Like-named read-outs stand apart in the source and are kept apart here.

Assay in all cases: MST
For assay [1], the target named is FITC-labeled IST1 (recombinant full-length IST1).
The target is the same in assay [2]. The source holds these as a separate data set.
The target is the same in assay [3]. This is another data set of the same source.

B1: CHMP1B (recombinant full length) (natural protein)
chain: MSNMEKHLFNLKFAAKELSRSAKKCDKEEKAEKAKIKKAIQKGNMEVARIHAENAIRQKNQAVNFLRMSARVDAVAARVQTAVTMGKVTKSMAGVVKSMDATLKTMNLEKISALMDKFEHQFETLDVQTQQMEDTMSSTTTLTTPQNQVDMLLQEMADEAGLDLNMELPQGQTGSVGTSVASAEQDELSQRLARLRDQV
As for B1, the equilibrium dissociation constant (Kd) (as a rule, the equilibrium constant for the complex coming apart) was determined as 9 µM in assay [1], 153 µM in assay [2] and 20.3 µM in assay [3].
